The results in this text go back to US20240207421A1, “NERVE TARGETING PEPTIDES AND METHODS OF USE” (ALUME BIOSCIENCES, INC., priority 2020, published 2024).

One experiment concerns the target Human Myelin PLP (human) (UniProt P60201). Description: phage display R3, NGS count.
Conditions: not given
With TNPWKPH (peptide), the Count was determined as 62.

MTPHTSC (peptide) registered a Count of 62.

In the case of NPSHHPR (peptide), the Count worked out at 37.

As to RHNVEFS (peptide), the Count was determined as 42.

LALYARM (peptide) displayed a Count of 44.

Regarding YTPMGTG (peptide), the Count was 50.

Substance FPVVTRN (peptide) registered a Count of 42.

GLIRHYT (peptide) yielded a Count of 66.

Substance NPNWRTI (peptide) returned a Count of 34.

Substance DTSRTME (peptide) showed a Count of 33.

Regarding GPFLFTV (peptide), the Count stood at 47.

In turn, FKMPIPT (peptide) yielded a Count of 34.

SMWSQFR (peptide) had a Count of 34.

Substance LTHHFAP (peptide) registered a Count of 40.

YPKLWTY (peptide) came in with a Count of 35.

Substance EKPSWTR (peptide) returned a Count of 33.

Take RFELPAP (peptide): the Count was 52.

HQGSRTY (peptide) gave a Count of 53.

As for ATLKPYR (peptide), the Count was found to be 68.

LRFQIPP (peptide) returned a Count of 44.

For the next experiment, the system named is Human Nidogen-2. Description: Phage display library screening (Example 2, Python script analysis), binding to Human Nidogen-2. The conditions noted are these: combined unique sequence count, Python/R script analysis. The protocol: Phage display library screens were used to identify peptides that bind to target proteins (including specific laminin trimers) that are expressed in human nerves, as described in Table 3. These screens were also carried out to identify peptides that could bind selectively to nerves versus muscle. Such peptides could therefore be useful for systemic in-vivo labeling of nerves during fluorescence assisted surgery. Specifically, m 13 phage libraries expressing 7 or 12 random amino acid peptides, or a cyclic peptide CX7C, on the N-terminus of the minor coat protein pIII (New England Biolabs; NEB) were processed through multiple rounds of selection for binding to target proteins expressed in nerves, or to excised human nerves, nerve extracts, or muscle, as described further below.
For screening against the specified target proteins in Table 1, including LN211, LN411, LN421, and LN521, the phage library was processed by up to 4 binding and wash cycles. For selection, phage libraries were incubated for up to 24 hours at 4° C. in 96 well plates that had been coated with one of the target proteins. Plates were then washed with PBS and phage were eluted using 0.2M glycine pH 2.0. Phage supernatants where then neutralized with Tris pH 9.0 prior to plating on TGI bacteria and LB agar plates. Colonies were counted to determine titer followed by DNA preparation of pools of phage and NextGen sequencing. After rounds of selection, phage were pooled and amplified for iterative selection. Phage that were bound at each round were sequenced. NextGen sequencing of pools after 2, 3 and 4 rounds of selection was used to isolate candidate sequences that were analyzed further to identify those that specifically bound each unique target protein.
Python Script Analysis: For all NEB sequence datasets, a python script was used to translate, trim, and filter the peptide sequences. The script translated the nucleotide sequences, translating amber codons as glutamine in peptide sequences, and then trimmed the end sequences that come from the vector. Secondly, the script combined the unique counts of trimmed peptides with identical sequences. […] Another python script was used to group peptides from different assays according to protein target (Myelin Protein Zero, Myelin Proteolipid Protein, Myelin Basic Protein, and Nidogen-2) and also combine the unique sequence counts for each peptide. An R script was written to merge the peptide sequences from different data files and determine peptides specific for each protein target but absent from different protein binding datasets. Peptide sequences were ranked by unique sequence count.
As to QTLRPKQ (Nidogen-2-binding peptide), the Count came to 6.

For the substance LVHPFHG (Nidogen-2-binding peptide), the Count came to 8.

GLRTMEP (Nidogen-2-binding peptide): the Count is given as 7.

As for ATYNMSQ (Nidogen-2-binding peptide), the Count was 7.

As for ARMAFSL (Nidogen-2-binding peptide), the Count was found to be 7.

Regarding QMDAKHM (Nidogen-2-binding peptide), the Count came to 6.

In the case of CSFKMNQKC (Nidogen-2-binding peptide), the Count is 8.

As to CSSSAPRIC (Nidogen-2-binding peptide), the Count is listed as 9.

Regarding LSIRGLT (Nidogen-2-binding peptide), the Count worked out at 6.

Regarding CVDKMASVC (Nidogen-2-binding peptide), the Count was 6.

With QLLESRT (Nidogen-2-binding peptide), the Count was 6.

On to NILSQVN (Nidogen-2-binding peptide), for which the Count is 6.

Regarding TPWLPTI (Nidogen-2-binding peptide), the Count worked out at 7.

For the substance CKDGHIRHC (Nidogen-2-binding peptide), the Count is 6.

Consider TIASLLV (Nidogen-2-binding peptide), for which the Count is reported as 6.

For the substance ALYLPGR (Nidogen-2-binding peptide), the Count came out at 7.

For LHITPEV (Nidogen-2-binding peptide), the Count was determined as 6.

YNHTMMY (Nidogen-2-binding peptide): the Count is 7.

Consider WLAAGSQ (Nidogen-2-binding peptide), for which the Count is 6.

As for HSRLPTP (Nidogen-2-binding peptide), the Count was determined as 13.

Regarding CIHHKGVLC (Nidogen-2-binding peptide), the Count is 6.

Take EAMMHRN (Nidogen-2-binding peptide): the Count stood at 6.

Consider CRSPHEPMC (Nidogen-2-binding peptide), for which the Count is listed as 6.

CYSAPTKSC (Nidogen-2-binding peptide): the Count amounted to 6.

With CNLATSLQC (Nidogen-2-binding peptide), the Count was 6.

For the next experiment, the target named is Human Myelin PLP (human) (UniProt P60201). Description: phage display, NGS count.
Sequence of Human Myelin PLP (human) (P60201 2-277 limits assumed): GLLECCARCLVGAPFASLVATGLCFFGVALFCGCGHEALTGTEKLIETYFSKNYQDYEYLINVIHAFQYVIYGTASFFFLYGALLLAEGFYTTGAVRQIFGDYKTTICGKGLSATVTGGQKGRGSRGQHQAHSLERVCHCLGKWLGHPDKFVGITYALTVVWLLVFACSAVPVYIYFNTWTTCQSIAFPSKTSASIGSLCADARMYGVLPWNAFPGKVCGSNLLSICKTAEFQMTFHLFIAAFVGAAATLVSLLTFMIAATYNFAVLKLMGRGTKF
Conditions: not given
Take TNPWKPH (peptide): the Count was 62.

The substance NPSHHPR (peptide) came in with a Count of 37.

With RHNVEFS (peptide), the Count stood at 42.

The substance LALYARM (peptide) had a Count of 44.

As for YTPMGTG (peptide), the Count stood at 50.

On to GLIRHYT (peptide), for which the Count came to 66.

In the case of NPNWRTI (peptide), the Count is 34.

The substance DTSRTME (peptide) came in with a Count of 33.

As for FKMPIPT (peptide), the Count was found to be 34.

As for SMWSQFR (peptide), the Count was determined as 34.

Turning to LTHHFAP (peptide), the Count amounted to 40.

Substance YPKLWTY (peptide) returned a Count of 35.

Consider EKPSWTR (peptide), for which the Count stood at 33.

The substance RFELPAP (peptide) showed a Count of 52.

Regarding HQGSRTY (peptide), the Count came out at 53.

As for ATLKPYR (peptide), the Count was 68.

Substance LRFQIPP (peptide) registered a Count of 44.

The target of a further experiment is Human MPZ (human) (UniProt P25189). Description: phage display, NGS count.
Sequence of Human MPZ (human) (P25189 30-153 limits assumed): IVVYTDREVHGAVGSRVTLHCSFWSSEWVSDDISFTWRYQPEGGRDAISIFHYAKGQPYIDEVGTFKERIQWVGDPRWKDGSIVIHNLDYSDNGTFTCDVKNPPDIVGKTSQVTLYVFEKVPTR
Conditions: not given
DRYLLNQ (peptide) returned a Count of 40.

The substance ISSVTVV (peptide) returned a Count of 37.

Take NPTSEGA (peptide): the Count worked out at 37.

Regarding TLLHYSA (peptide), the Count is 40.

In turn, YGQSITE (peptide) yielded a Count of 37.

In turn, KRNLWDI (peptide) returned a Count of 40.

Take ALPISYL (peptide): the Count turned out to be 42.

For WTSVATA (peptide), the Count turned out to be 41.

For the substance SNALSYF (peptide), the Count came to 41.

Consider WPRPIQI (peptide), for which the Count was 41.

Consider IEQVGWR (peptide), for which the Count stood at 38.

In the case of FSTTGRG (peptide), the Count was determined as 39.

As to LISPTAR (peptide), the Count stood at 37.

With HPFPRFD (peptide), the Count was found to be 45.

Consider LPNANNL (peptide), for which the Count was determined as 41.

With FRVTQTA (peptide), the Count came out at 41.

The substance GPVVSGM (peptide) displayed a Count of 46.

As for LWAKRDA (peptide), the Count was determined as 38.

On to NPISPRN (peptide), for which the Count amounted to 38.

For GGSKVWG (peptide), the Count was determined as 40.

FSPRDVS (peptide) gave a Count of 39.

Take FPSYTIS (peptide): the Count came to 40.

Regarding VPLAYLR (peptide), the Count worked out at 40.

Regarding STHEWRT (peptide), the Count turned out to be 45.

For HHPLFID (peptide), the Count worked out at 39.

In the case of SVAYVPV (peptide), the Count is 46.

Take YPQARTS (peptide): the Count was 46.

NMSHSNR (peptide) came in with a Count of 46.

The substance LVLSNPR (peptide) registered a Count of 46.

HLDSRRH (peptide) yielded a Count of 46.

Turning to FEHMAVT (peptide), the Count came out at 42.

As for YMKHSPG (peptide), the Count worked out at 45.

Take TTWPNTA (peptide): the Count came out at 45.

In turn, NTASMTT (peptide) came in with a Count of 38.

Regarding YAPWRVF (peptide), the Count is 37.

In turn, LVLQTTP (peptide) came in with a Count of 37.

Take HNQLLYT (peptide): the Count came to 38.

As to SYLPPFI (peptide), the Count came to 41.

In turn, LVNPFPE (peptide) registered a Count of 39.

LPAESHW (peptide) displayed a Count of 45.

For YSSLTSN (peptide), the Count was determined as 38.

Substance GSWSSGF (peptide) displayed a Count of 52.

TTLVVTA (peptide) showed a Count of 42.

As for SAHSVVE (peptide), the Count was 38.

Substance AWTMRAS (peptide) displayed a Count of 39.

AMSNLSY (peptide) came in with a Count of 45.
